From FireProtDB (doi:10.1111/j.1432-1033.1995.tb20304.x)

Details: Hevea brasiliensis, Thermal, DSC, glycine 0.05 M, reversible: yes (~75%), whole UniProt chain shown

B1: Pro-hevein wild type, P02877 (protein)
chain: MNIFIVVLLCLTGVAIAEQCGRQAGGKLCPNNLCCSQWGWCGSTDEYCSPDHNCQSNCKDSGEGVGGGSASNVLATYHLYNSQDHGWDLNAASAYCSTWDANKPYSWRSKYGWTAFCGPVGAHGQSSCGKCLSVTNTGTGAKTTVRIVDQCSNGGLDLDVNVFRQLDTDGKGYERGHITVNYQFVDCGDSFNPLFSVMKSSVIN
With B1 the Tm (pH 1.82) was 73 °C, the “heat capacity change of unfolding” value (pH 1.82) was 0.37 kcal/mol/K and the “unfolding enthalpy (calorimetric)” value (pH 1.82) was 29 kcal/mol. For the same protein, the “unfolding enthalpy (van 't Hoff)” value (pH 1.82) was 43.4 kcal/mol, the Tm (pH 2.1) was 74.2 °C and the “heat capacity change of unfolding” value (pH 2.1) was 0.44 kcal/mol/K. For the same protein, the “unfolding enthalpy (calorimetric)” value (pH 2.1) was 28.6 kcal/mol, the “unfolding enthalpy (van 't Hoff)” value (pH 2.1) was 41.6 kcal/mol and the Tm (pH 2.92) was 77.8 °C. For the same protein, the “heat capacity change of unfolding” value (pH 2.92) was 0.5 kcal/mol/K, the “unfolding enthalpy (calorimetric)” value (pH 2.92) was 31 kcal/mol and the “unfolding enthalpy (van 't Hoff)” value (pH 2.92) was 41.5 kcal/mol. The Tm (pH 3.2) was 83.6 °C, the “heat capacity change of unfolding” value (pH 3.2) was 0.62 kcal/mol/K and the “unfolding enthalpy (calorimetric)” value (pH 3.2) was 34 kcal/mol. The “unfolding enthalpy (van 't Hoff)” value (pH 3.2) was 41.8 kcal/mol, the Tm (pH 3.54) was 84.5 °C and the “heat capacity change of unfolding” value (pH 3.54) was 0.44 kcal/mol/K. The “unfolding enthalpy (calorimetric)” value (pH 3.54) was 36.5 kcal/mol, the “unfolding enthalpy (van 't Hoff)” value (pH 3.54) was 41.6 kcal/mol and the Tm (pH 3.67) was 90.1 °C. The “heat capacity change of unfolding” value (pH 3.67) was 0.45 kcal/mol/K, the “unfolding enthalpy (calorimetric)” value (pH 3.67) was 38 kcal/mol and the “unfolding enthalpy (van 't Hoff)” value (pH 3.67) was 42.5 kcal/mol.
